Results: article PMC10183829 (2023)

B1: mCh-HsC53 [human] / GST-ATG8A [Arabidopsis thaliana] (parent complex)
chain 1: MEDHQHVPIDIQTSKLLDWLVDRRHCSLKWQSLVLTIREKINAAIQDMPESEEIAQLLSGSYIHYFHCLRILDLLKGTEASTKNIFGRYSSQRMKDWQEIIALYEKDNTYLVELSSLLVRNVNYEIPSLKKQIAKCQQLQQEYSRKEEECQAGAAEMREQFYHSCKQYGITGENVRGELLALVKDLPSQLAEIGAAAQQSLGEAIDVYQASVGFVCESPTEQVLPMLRFVQKRGNSTVYEWRTGTEPSVVERPHLEELPEQVAEDAIDWGDFGVEAVSEGTDSGISAEAAGIDWGIFPESDSKDPGGDGIDWGDDAVALQITVLEAGTQAPEGVARGPDALTLLEYTETRNQFLDELMELEIFLAQRAVELSEEADVLSVSQFQLAPAILQGQTKEKMVTMVSVLEDLIGKLTSLQLQHLFMILASPRYVDRVTEFLQQKLKQSQLLALKKELMVQKQQEALEEQAALEPKLDLLLEKTKELQKLIEADISKRYSGRPVNLMGTSL
chain 2: MAKSSFKISNPLEARMSESSRIREKYPDRIPVIVEKAGQSDVPDIDKKKYLVPADLTVGQFVYVVRKRIKLGAEKAIFVFVKNTLPPTAALMSAIYEEHKDEDGFLYMTYSGENTFG

Variants of: B1
Test: microscopy-based protein-protein interaction assay (on-bead binding, confocal); 1 μM C53 protein; glutathione-sepharose beads with GST-ATG8A; read off a plot

Variant	response
chain 1 MEDHQHVPIDIQTSKLLDWLVDRRHCSLKWQSLVLTIREKINAAIQDMPESEEIAQLLSGSYIHYFHCLRILDLLKGTEASTKNIFGRYSSQRMKDWQEIIALYEKDNTYLVELSSLLVRNVNYEIPSLKKQIAKCQQLQQEYSRKEEECQAGAAEMREQFYHSCKQYGITGENVRGELLALVKDLPSQLAEIGAAAQQSLGEAIDVYQASVGFVCESPTEQVLPMLRFVQKRGNSTVYEWRTGTEPSVVERPHLEELPEQVAEDAIDAGDFGVEAVSEGTDSGISAEAAGIDAGIFPESDSKDPGGDGIDAGDDAVALQITVLEAGTQAPEGVARGPDALTLLEYTETRNQFLDELMELEIFLAQRAVELSEEADVLSVSQFQLAPAILQGQTKEKMVTMVSVLEDLIGKLTSLQLQHLFMILASPRYVDRVTEFLQQKLKQSQLLALKKELMVQKQQEALEEQAALEPKLDLLLEKTKELQKLIEADISKRYSGRPVNLMGTSL [chain 1 W269A, chain 1 W294A, chain 1 W312A]	~0.25 normalized fluorescence
